Test results reported in PMC3410805, “Lipopolysaccharide impairs amyloid beta efflux from brain: altered vascular sequestration, cerebrospinal fluid reabsorption, peripheral clearance and transporter function at the blood–brain barrier” (Journal of Neuroinflammation, 2012).
No end group written: not given here.

Tests used:
[1] = Clearance of IV-injected I-Aβ from serum; format: in vivo, CD-1 mice; details: linear regression, n = 7–10 per group
Procedure: All animal protocols were performed in an Association for Assessment and Accreditation of Laboratory Animal Care accredited facility and approved by the animal committee of the VA and St Louis University Medical Centers. Male CD-1 mice were purchased from Charles River and kept on a 12/12 hour light/dark cycle with food and water freely available. Mice at 6–8 weeks of age were treated with 3 intraperitoneal (IP) injections of 3 mg/kg LPS from Salmonella typhimurium (Sigma, St. Louis, MO, USA) dissolved in sterile normal saline over a 24-hour period as previously described. […]
In BSA/lactated Ringer’s solution 3 × 10^5 CPM of ^131I-Aβ and ^125I-albumin were prepared and injected together into the jugular vein of mice treated with LPS or saline. […] Blood was allowed to clot, spun at 5,000 g to separate serum from blood cells, and 50 μl serum was counted along with harvested tissues from liver and kidney in a gamma counter. The rate of I-Aβ tissue uptake was determined using multiple-time regression analysis. For this analysis, experimental clock time was re-expressed as exposure time to correct for clearance of I-Aβ from the blood. Exposure time was calculated from the formula: […]
Serum clearance was calculated by plotting the log serum CPM/50 μl versus experimental clock time. […]

[2] = Aβ uptake by liver and kidney, multiple-time regression analysis; format: in vivo, CD-1 mice; details: IV, mean ± SEM, n = 7–10 per group
Procedure: All animal protocols were performed in an Association for Assessment and Accreditation of Laboratory Animal Care accredited facility and approved by the animal committee of the VA and St Louis University Medical Centers. Male CD-1 mice were purchased from Charles River and kept on a 12/12 hour light/dark cycle with food and water freely available. Mice at 6–8 weeks of age were treated with 3 intraperitoneal (IP) injections of 3 mg/kg LPS from Salmonella typhimurium (Sigma, St. Louis, MO, USA) dissolved in sterile normal saline over a 24-hour period as previously described. Briefly, the first injection was given in the morning, and the second and third injections were given at 6 and 24 hours following the first injection, respectively. All mice were studied at 28 hours following the first injection. […] No mice died as a result of this treatment regimen. A total of 225 mice were used in this study: 90 were used for detection of oxidative modifications to LRP-1 and Pgp measurement, 30 for LRP-1 measurement, 44 for measurement of Aβ and a2M vascular sequestration, 20 for CSF bulk flow measurement, 21 for measurement of peripheral Aβ clearance, and 20 for primary endothelial cell culture.
In BSA/lactated Ringer’s solution 3 × 10^5 CPM of ^131I-Aβ and ^125I-albumin were prepared and injected together into the jugular vein of mice treated with LPS or saline. The liver, the left kidney, and blood from the carotid artery were collected at 1, 2, 5, 10, and 20 minutes. Blood was allowed to clot, spun at 5,000 g to separate serum from blood cells, and 50 μl serum was counted along with harvested tissues from liver and kidney in a gamma counter. The rate of I-Aβ tissue uptake was determined using multiple-time regression analysis. For this analysis, experimental clock time was re-expressed as exposure time to correct for clearance of I-Aβ from the blood. Exposure time was calculated from the formula:
(5) Exposuretime=∫0tCpttdt/Cpt
where t equals experimental clock time, Cp represents the level of radioactivity in the serum over time and Cpt is the level of radioactivity in the serum at time t. Tissue/serum ratios were then calculated from the following formula:
(6) Tissue/serumratio=serumvolumetissueCPM/tissueweightserumCPM
To correct for alterations in vascular space and/or vascular permeability which occur with LPS administration, tissue/serum ratios for I-albumin were subtracted from those for I-Aβ. The corrected tissue/serum ratios were plotted against exposure time calculated for Aβ, and the unidirectional influx constant determined from the slope of the linear portion of the curve.

[3] = system: murine BBB; details: compared with human Aβ1-42; cited from earlier work
Description: In this study we have shown that peripheral administration of LPS inhibits CSF bulk flow, central and peripheral clearance of Aβ, and increases vascular sequestration of Aβ. […] Al ...

[4] = LPS-treated mice (3 x 3 mg/kg IP, studied at 28 h), corrected for I-albumin

| Substance | half-life in serum ([1]; LPS-treated mice (3 x 3 mg/kg IP at 0, 6, 24 h, studied at 28 h), IV injection, serum at 1-20 min) [min] | half-life in serum ([1]; saline-treated mice, IV (jugular vein) injection, serum at 1, 2, 5, 10, 20 min, log serum CPM/50 μl vs time) [min] | unidirectional influx rate of Aβ into kidney (Ki) [2, 4] [µL/g/min] | unidirectional influx rate of Aβ into liver (Ki) [2, 4] [µL/g/min] | unidirectional influx rate of Aβ into kidney (Ki) ([2]; saline-treated mice, corrected for I-albumin) [µL/g/min] | unidirectional influx rate of Aβ into liver (Ki) ([2]; saline-treated mice, tissue/serum ratio corrected for I-albumin vs exposure time) [µL/g/min] | rate of clearance across the murine BBB [3] |
| --- | --- | --- | --- | --- | --- | --- | --- |
| I-Aβ: Murine Aβ1-42 (Bachem) radioactively labeled with 125I or 131I by the chloramine-T method (DAEFGHDSGFEVRHQKLVFFAEDVGSNKGAIIGLMVGGVVIA; also: 125I or 131I radiolabel, residue not given here; UniProt P12023 672-713, looked up) | 8.4 | 4 | 0.5608 ± 3.859 | 8.356 ± 6.433 | 41.26 ± 10.46 | 34.67 ± 3.444 | – |
| murine Aβ1-42: Murine amyloid beta 1-42 purchased from Bachem (DAEFGHDSGFEVRHQKLVFFAEDVGSNKGAIIGLMVGGVVIA; Amyloid-beta protein 42; UniProt P12023 672-713, looked up) | – | – | – | – | – | – | cleared at a faster rate across the murine BBB than human Aβ1-42 |
